Test results as given in paper PMC10659578, “Mechanism of stepwise electron transfer in six-transmembrane epithelial antigen of the prostate (STEAP) 1 and 2” (eLife, 2023).

Target: the molecule itself
Assay: SEC; purified hSTEAP2 on an SRT-3C SEC-300 column in 20 mM HEPES, 150 mM NaCl, 0.01% LMNG; single peak

B1: Human six-transmembrane epithelial antigen of the prostate 2 (STEAP2) (natural protein)
chain: MESISMMGSPKSLSETFLPNGINGIKDARKVTVGVIGSGDFAKSLTIRLIRCGYHVVIGSRNPKFASEFFPHVVDVTHHEDALTKTNIIFVAIHREHYTSLWDLRHLLVGKILIDVSNNMRINQYPESNAEYLASLFPDSLIVKGFNVVSAWALQLGPKDASRQVYICSNNIQARQQVIELARQLNFIPIDLGSLSSAREIENLPLRLFTLWRGPVVVAISLATFFFLYSFVRDVIHPYARNQQSDFYKIPIEIVNKTLPIVAITLLSLVYLAGLLAAAYQLYYGTKYRRFPPWLETWLQCRKQLGLLSFFFAMVHVAYSLCLPMRRSERYLFLNMAYQQVHANIENSWNEEEVWRIEMYISFGIMSLGLLSLLAVTSIPSVSNALNWREFSFIQSTLGYVALLISTFHVLIYGWKRAFEEEYYRFYTPPNFVLALVLPSIVILGKIILFLPCISRKLKRIKKGWEKSQFLEEGMGGTIPHVSPERVTVM
notes: N-terminal residues 1-27, residues 332-353 and C-terminal residues 470-490 are unresolved in the map, which implies a 490-residue chain; Homotrimer with heme; The cryo-EM sample was in GDN with FAD and NADP+; Residues of the TEV site may remain at the C-terminus after cleavage; also called hSTEAP2; not shown: His6, C-terminal, cleaved
stoichiometry N: 3
